# Experimental data taken from the DeepSol protein solubility set.
# Test: soluble on expression in E. coli; label from the status in PepcDB or PDB records
row,Sequence,soluble on expression in E. coli
1,MGSDKIHHHHHHMRLTIHHTTRYRFDEPVSFGLQQLRKTPKTNTNQQVVEWQTRIIGGQKEVSFDDHHHNVTELISFEPGVTELELVSEGVVELTDTHGVVGRHRGPSPLWLYARPTVLTEARAGVRELIRDLDDSNPVDMLHQLSARIREAITYQIGVSELGWSAEDAIQSAHGVCQDHAHVFIACARKLGLPARYVSGYLMLDDRTTQDAMHAWAEAHVEGLGWVGFDVSNGISPDARYVRVATGLDYSDAAPVSGTRIGGAGEALDVQIEVAQQ,not soluble
2,MKYNATKAISIAPPTIPTVNPTINEVFSFELLELELEEEEDKLLSCESDCFAQYVDGHLSHVNEVITQYSPEAQTGHDAVESQTTHPSLPLVAEVEEVAVLDKDELAEALEELDIFCLIFRKRT,soluble
3,MGSDKIHHHHHHMAGTTTTRKKFRVAVSGATVDGREIKPEHLRDAAANYSPDVYGARVNVEHYLSPYPDSDFGAMGDVTALSAEDITDGPLSGRTALYAEIEPSARMKQLTDAGKKVFSSIELHPQFALNGKAYVMGLAMTDTPASLGTERLKFATQQRAQVMAFNNQQAEAPMFSDAIEADVIELTAQRGEEGKQWFNRVMGIMGKGKKSDDERFSQVHQAVEVVAQSQADLSDQFSAVEQARASDKQAIEKLTSDFEALRQKLSVTDGSFSHRPPAGGGNNSQLADY,not soluble
4,MSAEVQESSGKRGKGKQKKMTVRVDFTPMVDMNMLLITFFMLCTTLSKPQTMEISMPSNDKDITEQQKSMVKASQAITLLLGADNKLYYYEGEPNYKDYTSLKETSYGASGLRAVLLQKNAAAVNQVRALKQQKLDLKITDDEYKKKVSEIKSGKNTPTVIIKATDDASYMNLIDALDEMQICNIGKYVITDIAEADEFLIKNYDAKGELSQNLADK,not soluble
5,MSLSPAPTTMDFTPAPLEDTSSRPQFCKWPCECPPSPPRCPLGVSLITDGCECCKMCAQQLGDNCTEAAICDPHRGLYCDYSGDRPRYAIGVCAQVVGVGCVLDGVRYNNGQSFQPNCKYNCTCIDGAVGCTPLCLRVRPPRLWCPHPRRVSIPGHCCEQWVCEDDAKRPRKTAPRDTGAFDAVGEVEAWHRNCIAYTSPWSPCSTSCGLGVSTRISNVNAQCWPEQESRLCNLRPCDVDIHTLIKAGKKCLAVYQPEASMNFTLAGCISTRSYQPKYCGVCMDNRCCIPYKSKTIDVSFQCPDGLGFSRQVLWINACFCNLSCRNPNDIFADLESYPDFSEIANEGHHHHHH,not soluble
6,MAHHHHHHMNRSASLPSASPSLSTMRTITVALCASSKKHQQSFDALREAGKLHNERLLLMRQHSASRQAGCGDVSGEAGEASTAAPQEGCASGSRGMSSHSRSRRTSRATSEVLAHPARSRSTTEGSLSCAALSNCLFRFLSLNYDAQRHRMVLCIDGDIKEVHQSSAAAFAQDGSKANAQQSPSVDEHAGTDSTVRGEGEPSQSALMDEVDVVLHKVATFGTPVAIRALHQWYNGAQKRRSRQRRAPLIVVDPLEKVQLLMTRSMLCKLLNNVGDDGQPIALIPRTFVWDCPSDAACRHARRTNGSSAATPLGIHSFTSMEEQEARANGTAAEHWWIAKPDESTGAAFTHHLVMWLTRDADVSVPTAVKAALPTEACRFILQELYVYALPVVLKVYCVGSHISVKVNPTVSLLNYLWEHTRGSTLADVPVAMDSQDKAFFSTVASVSTSRSQPTLSAMTSSTDDDALPATSPTMNATNAAGAPPSPTELPQGTSSESASAEQSLIAWESMVVPVDYWNAFLAPGTPAYTAISKLAQDLSGDAGVGLSLYGFDLVLVPQYLAHTYQRKGARGIGRTEGATVRYEGVAPSLSKVAHRSADTAKPVQRIPASHSMRKLPGAGASAPPSPVSQLFRASDMFDLASGAPTSLLLDSIPVVIDVNYFPGYKGVAEVNQHMLELIALKSMHLQDGSSNRAWHADTATGAEAKKRRCSMM,not soluble
7,MSLAHFSVLPPEINSLRMYLGAGSAPMLQAAAAWDGLAAELGTAASSFSSVTTGLTGQAWQGPASAAMAAAAAPYAGFLTTASAQAQLAAGQAKAVASVFEAAKAAIVPPAAVAANREAFLALIRSNWLGLNAPWIAAVESLYEEYWAADVAAMTGYHAGASQAAAQLPLPAGLQQFLNTLPNLGIGNQGNANLGGGNTGSGEGHHHHHH,not soluble
8,HTHWGYTGHDSPESWGNLSEEFRLCSTGKNQSPVNITETVSGKLPAIKVNYKPSMVDVENNGHTIQVNYPEGGNTLTVNGRTYTLKQFHFHVPSENQIKGRTFPMEAHFVHLDENKQPLVLAVLYEAGKTNGRLSSIWNVMPMTAGKVKLNQPFDASTLLPKRLKYYRFAGSLTTPPCTEGVSWLVLKTYDHIDQAQAEKFTRAVGSENNRPVQPLNARVVIE,soluble
9,MKVLTVFGTRPEAIKMAPLVHALEKDPHFEAKVCVTAQHREMLDQVLTLFSIVPDYDLNIMQPGQGLTEITCRILEGLKPILADFKPDVVLVHGDTTTTIATSLAAFYQRIPVGHVEAGLRTGDLYSPWPEEANRTLTGHLAMYHFAPTENSRQNLLRENIPDERIFVTGNTVIDALIWVRDRVLTSDTLQAELAEQYPFLNANKKMILVTGHRRESFGQGFEHICQALAEIAAANQNVQIVYPVHLNPNVSEPVNRILGHVENVVLIEPQDYLPFVWLMNHAWLILTDSGGIQEEAPSLGKPVLVMRETTERPEAITAGTVRLIGTDSRRIVAEVMRLLHDENEYQTMSRAHNPYGDGQSCARILQALKSYRVSL,not soluble
10,SQTRDLQGGKAFGLLKAQQEERLDEINKQFLDDPKYSSDEDLPSKLEGFKEKYMEFDLNGNGDIDIMSLKRMLEKLGVPKTHLELKKLIGEVSSGSGETFSYPDFLRMMLGKRSAILKMILMYEEKAREK,not soluble
11,MSLNLSKTLKHVYQEAKVSDLFPITHLNSPCIFESQSGLVGSVIKVNGAAFEIEEAETLNHQRFLLHQALVSLDSRFIIYVTTHRQKISCPLIGEFKPGFAKDLDERYQQRFKDKNLYKNTLYITVVLKGDDTSKTGSWLKWAKSLSIKGNSELSEHHREQSIQTLNRVVEQLQANLNPFEATILGKQDEVLGFSELLQFLGLVVNAGQTTSFKHPVCSPPIANSIPQTFKQEVKYPEGHLGQYLSSCQLLFGECIQFQGNTQKDCVFGAMLSLKKYPTNTASILLDSMLSLDCEFIATHTFAPIGRDSALDTISKKRSKLLSAEDKALSQTTALSDLEDGIASETLLLGAHHHTVMLLAPNKSLLDAAILEATKRYGSAGIVVVKETLGLEPAFWSQLPCNQHFITRASLITSQNFVDFCPLHNTQTGFSNENFLGGAVTLLETPSKTPVYFNYHARGSKTEGHHHHHH,soluble
12,SGDPNSRKKQALNRLRAQLRKKKESLADQFDFKMYIAFVFKEKKKKSALFEVSEVIPVMTNNYEENILKGVRDSSYSLESSLELLQKDVVQLHAPRYQSMRRDVIGCTQEMDFILWPRNDIEKIVCLLFSRWKESDEPFRPVQAKFEFHHGDYEKQFLHVLSRKDKTGIVVNNPNQSVFLFIDRQHLQTPKNKATIFKLCSICLYLPQEQLTHWAVGTIEDHLRPYMPE,soluble
13,MAVPVRHLVAVTACVSGVAHTYMAAERLEKLCQQEKWSIKIETQGALGTENRLTEEDIRRADVVLLITDIELAGVERFTRSRYVQSGISAFLREPQRVMSAVRKLLSAPQHTHLILE,not soluble
14,MSLKIEPKIFDELKTALVSFGDKYFVGEELNRSKLADDLRNYDEALLSKLFEVDFIMQHFVKEVAGQKLFQIEQLEEAVLYNDYWDTSYTKYENRVGLASKGKFLQDSQDVVLDFPFKDCVLTASMTKENNEEGYDDAFLNEVIEKDEIDRLFDKKVFVNVKRFGDNQGAQHSTAVDNEIVSFDKEKDNLIIKGNNLLALHALKNEFAGKVRQIYIDPPYNTGKDSFNYNDKFNHSSWLVFMKNRLEIAWELLSDDGTIWISIDGYESHYLKVLADGIFGAENFLDEVVWQRAYAPINLKKTFSKSHDYILVYAKNNSGAKELNRLPRKAEMVASYKNPDNDPRGVYKADNFSVGPAVEKNIYEITTPSGRKVLPPDGYSWRFSKERFEELLADNRVYFGKDGNSAPSYKRFLSEVKDGVVAQTLWTYQEVGHNQDAKKEIKSLFDGQTAFGTPKPEKLIQRILTLGSDENDLVLDFFMGSATTQAVAMKMNRRFIGIEQMDYISTVSVPRLQKVIEGEQGGISKDVNWQGGGSFVYAELFPKNMGYLQDVIHAKDLEELKSVYERMLSGTDTDEPADISFRADLSKIDWLQGFDENKRLLVKLLDKNGLYYNYSEIDDKNVRDLISDEDYTFNKNFYEGGEGHHHHHH,soluble
15,MGSDKIHHHHHHMIYIGLPQWSHPKWVRLGITSLEEYARHFNCVEGNTTLYALPKPEIVARWYEQTHDDFRFCFKFPATISHQAALRHCDELSSEFFARLAPLASRIGQYWLQLPATFGPRDLPALWHFLDGLPKDFTYGVEVRHPEFFAKEEAEQQLNRGLHERNVNRVILDSRPVHSAAATSPAMIDAQQKKPKVPVHAVMTARQPMVRFIGGDDMAHNRELFRVWLQTLAKWHQSGTPWLFLHTPDIAFAPALVDTLWGDLRAALPAAGNAPSIPQQSSLF,not soluble
16,MTTSLIHMANHLDASTEEISLNYVLLGHPHHERAQHHPSYMDMIKGAIQAIDNGTGSSKAAILKYIAQNYHVGENLPKVNNHLRSVLKKAVDSGDIEQTRGHGATGSFRMGKECEKNLQVGIPVQTKPMLMLKEVRQKLENISKAEKTKPSTSSMSTNKKGKPISTMKKRGVMSKKRSSKNKMAPKAKSHGLKKKGPATKSSGLVHKAAGAKNEAAPTTKMELRTGTRKSYC,not soluble
17,MITLAVDAMGGDQGLAVTVPGATAFLQAHPDVRLIMTGDETQLRQALTAAGAPMERIDICHTTQVVGMDEAPQSALKNKKDSSMRVAINQVKEGKAQAAVSAGNTGALMATARFVLKTIPGIERPAIAKFLPSDTDHVTLALDLGANVDCTSEQLAQFAVIGSELVHALHPQKGQPRVGLVNVGTEDIKGTDTVKQTYKLLQNSKLNFIGNIESNGILYGEADVVVADGFVGNVMLKTIEGAVKFMSGAIRREFQSNLFNKLAAVAALPALKGLKNKLDPRKFNGAILLGLRGIVIKSHGGTDETGFRYALEEAYHEAKSAGLSKIEQGVAEQLAALETAKAVQNENVGGL,not soluble
18,MESKEERALNNLIVENVNQENDEKDEKEQVANKGEPLALPLNVSEYCVPRGNRRRFRVRQPILQYRWDIMHRLGEPQARMREENMERIGEEVRQLMEKLREKQLSHSLRAVSTDPPHHDHHDEFCLMP,soluble
19,MSERLEVSIEGEDDFPFDEDNIQELDHFDIGEDEDPEEVAQEDAGVWQERVPLTRQKRKQVLRKPGRKRTGEIIHIPKRQPPRAVRVKSYQQYDAFDELVEQDLDDSDPEVMDDDGEPSTSKTWRIFVRKDGSGMHFDWPIFMDSAVSLKDVVNFISTDASEIPKSLICTSIPQEFTNTGTFIIHLEEGLLKEEICNDGLGTWNSAQMFVRKYVLGVGRARPLMTQKNDHNLKHIFISGFDKDEHMIPYVVICYEWMGQPHPLTVYEDQTEKQAFEQMTWKKCSNPEDQVPILARHGCDYNSAVAILLSSEKCTNYGKSVPQFVQECISFVIDINECGGDRALFLDGNEWQRPSGSHRFFRILYPNQDHGDFDTWNIERASSNFNVTNSDIQIICRRYNGQKYSQSFGFVRKIYLLKILPLCPPEVAEQLHNRDLAVISYSYRNAPHPTFIEQPDRQKLPDGQRVGEEVELVSGDVMFDDDISPEMREMVENMERKKKINSERLMELLQRIHRIDQICKKEAWLESSAEVQQLTQIAQLLHYCQ,not soluble
20,GMLFESINTGCLDGNDTPWMPFAPYSNDVMVKYFKIDPVRGETITLLKAPAGMEMPRHHHTGTVIVYTVQGSWRYKEHDWVAHAGSVVYETASTRHTPQSAYAEGPDIITFNIVAGELLYLDDKDNIIAVENWKTSMDRYLNYCKAHGIRPKDLSTFEG,soluble
